B1: Matrilin-3 (Homo sapiens), O15232 (parent)
chain: MPRPAPARRLPGLLLLLWPLLLLPSAAPDPVARPGFRRLETRGPGGSPGRRPSPAAPDGAPASGTSEPGRARGAGVCKSRPLDLVFIIDSSRSVRPLEFTKVKTFVSRIIDTLDIGPADTRVAVVNYASTVKIEFQLQAYTDKQSLKQAVGRITPLSTGTMSGLAIQTAMDEAFTVEAGAREPSSNIPKVAIIVTDGRPQDQVNEVAARAQASGIELYAVGVDRADMASLKMMASEPLEEHVFYVETYGVIEKLSSRFQETFCALDPCVLGTHQCQHVCISDGEGKHHCECSQGYTLNADKKTCSALDRCALNTHGCEHICVNDRSGSYHCECYEGYTLNEDRKTCSAQDKCALGTHGCQHICVNDRTGSHHCECYEGYTLNADKKTCSVRDKCALGSHGCQHICVSDGAASYHCDCYPGYTLNEDKKTCSATEEARRLVSTEDACGCEATLAFQDKVSSYLQRLNTKLDDILEKLKINEYGQIHR
partner: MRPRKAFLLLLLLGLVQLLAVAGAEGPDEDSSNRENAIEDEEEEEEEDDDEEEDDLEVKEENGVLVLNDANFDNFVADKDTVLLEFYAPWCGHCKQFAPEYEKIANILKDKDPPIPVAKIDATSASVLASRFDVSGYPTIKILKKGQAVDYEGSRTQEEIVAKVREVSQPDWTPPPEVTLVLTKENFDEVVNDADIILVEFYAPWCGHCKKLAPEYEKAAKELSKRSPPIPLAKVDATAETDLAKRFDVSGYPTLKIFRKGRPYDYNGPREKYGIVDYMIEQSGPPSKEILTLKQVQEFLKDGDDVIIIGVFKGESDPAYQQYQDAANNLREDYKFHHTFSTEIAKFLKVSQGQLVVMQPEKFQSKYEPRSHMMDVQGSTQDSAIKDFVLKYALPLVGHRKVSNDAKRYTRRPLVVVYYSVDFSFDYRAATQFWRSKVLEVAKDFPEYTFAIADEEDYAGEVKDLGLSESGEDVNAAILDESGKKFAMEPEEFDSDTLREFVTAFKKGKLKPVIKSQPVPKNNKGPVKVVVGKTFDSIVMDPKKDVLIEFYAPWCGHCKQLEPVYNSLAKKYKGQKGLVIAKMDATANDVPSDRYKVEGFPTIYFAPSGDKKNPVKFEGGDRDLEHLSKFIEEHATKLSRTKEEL

The text below walks through data of IntAct's records for PubMed 16287128.

The variants in the assay derive from B1. To be noted: with pdia4_human PDIA4, P13667.
For R121W, the “effect of a mutation on the interaction” value was “causing an interaction”.

With A219D, the “effect of a mutation on the interaction” value is recorded as “causing an interaction”.

In the case of V194D, the “effect of a mutation on the interaction” value is listed as “causing an interaction”.

With E252K, the “effect of a mutation on the interaction” value was “with no effect”.
